Experimental data reported in patent US20240383994A1.
pIC50: −log10 of the molar value.

What was measured:
[1] = biological target: human CD40 (hCD40), full length, on cells (human) (UniProt P25942); test: cell-based or functional assay
[2] = biological target: cynoCD40-mFc (monkey (cyno)); test: flow cytometry, blocking of cynoCD40-mFc (2 µg/mL) binding to CHO-K1-cynoCD40L cells
Chain of cynoCD40-mFc (monkey (cyno)) (chain, as listed by the source limits assumed, form in doubt): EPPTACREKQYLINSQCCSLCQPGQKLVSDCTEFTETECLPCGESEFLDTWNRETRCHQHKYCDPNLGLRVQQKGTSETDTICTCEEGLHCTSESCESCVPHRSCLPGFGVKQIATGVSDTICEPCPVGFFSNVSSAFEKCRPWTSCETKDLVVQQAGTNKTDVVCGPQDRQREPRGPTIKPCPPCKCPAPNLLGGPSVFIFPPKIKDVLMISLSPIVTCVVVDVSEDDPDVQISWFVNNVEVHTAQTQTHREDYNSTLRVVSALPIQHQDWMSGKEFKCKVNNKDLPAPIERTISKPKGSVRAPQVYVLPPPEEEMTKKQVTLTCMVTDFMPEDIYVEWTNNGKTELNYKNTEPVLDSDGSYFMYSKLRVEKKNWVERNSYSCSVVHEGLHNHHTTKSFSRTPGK

Chain of human CD40 (hCD40), full length, on cells (human) (P25942 21-277 limits assumed): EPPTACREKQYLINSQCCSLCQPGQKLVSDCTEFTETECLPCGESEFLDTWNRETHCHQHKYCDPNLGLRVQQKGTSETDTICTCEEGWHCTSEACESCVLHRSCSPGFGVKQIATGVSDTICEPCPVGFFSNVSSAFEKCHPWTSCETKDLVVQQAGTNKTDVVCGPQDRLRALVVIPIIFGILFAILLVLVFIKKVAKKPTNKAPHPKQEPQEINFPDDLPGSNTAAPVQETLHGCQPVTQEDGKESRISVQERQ

Row | Substance | Inhibition, % of Ramos cell apoptosis at 0.064 ng/L (so in the source) [1] [%] | Inhibition, % of Ramos cell apoptosis at 0.32 ng/L (so in the source) [1] [%] | Inhibition, % of Ramos cell apoptosis at 1.6 ng/L (so in the source) [1] [%] | Inhibition, % of Ramos cell apoptosis at 8 ng/L (so in the source) [1] [%] | Inhibition, % of Ramos cell apoptosis at 40 ng/L (so in the source) [1] [%] | Inhibition, % of Ramos cell apoptosis at 200 ng/L (so in the source) [1] [%] | Inhibition, % of Ramos cell apoptosis at 1000 ng/L (so in the source) [1] [%] | pIC50 [2]
1 | IgG4 isotype control antibody | -12 | -9 | -10 | 0 | -20 | -6 | -3 | 
2 | Iscalimab (CFZ533) (antibody) |  |  |  |  |  |  |  | 7.62
